Measured values: US20160264649A1

Experiments:
Test in all cases: cell-based or functional assay
[1] = molecular target: HIV-1 SF162 Env on pseudovirus (HIV-1) (UniProt P19550)
[2] = molecular target: HIV-1 MGRM-G-014 Env (HIV-1)
[3] = molecular target: HIV-1 IAVI-C3 Env (HIV-1)
[4] = molecular target: HIV-1 MGRM-F1-015 Env (HIV-1)
[5] = molecular target: HIV-1 THR0.18 (Acute) Env on pseudovirus (HIV-1)
[6] = molecular target: HIV-1 MGRM-AG-005 Env (HIV-1)
[7] = molecular target: HIV-1 TRJ0.58 (Acute) Env on pseudovirus (HIV-1)
[8] = molecular target: HIV-1 MGRM-D-016 Env (HIV-1)
[9] = molecular target: HIV-1 MGRM-C-025 Env on pseudovirus (HIV-1)
[10] = molecular target: HIV-1 MGRM-G-025 Env (HIV-1)
[11] = molecular target: HIV-1 MGRM-Chronic-B-024 Env on pseudovirus (HIV-1)
[12] = molecular target: HIV-1 MGRM-Chronic-B-020 Env on pseudovirus (HIV-1)
[13] = molecular target: HIV-1 93UG077 Env (HIV-1)
[14] = molecular target: HIV-1 MGRM-F1-004 Env (HIV-1)
[15] = molecular target: HIV-1 93TH305 Env on pseudovirus (HIV-1)
[16] = molecular target: HIV-1 MGRM-G-016 Env (HIV-1)
[17] = molecular target: HIV-1 JRFL Env on pseudovirus (HIV-1)
[18] = molecular target: HIV-1 MGRM-AG-013 Env (HIV-1)
[19] = molecular target: HIV-1 MGRM-D-018 Env (HIV-1)
[20] = molecular target: HIV-1 MGRM-Chronic-B-002 Env on pseudovirus (HIV-1)
[21] = molecular target: HIV-1 MGRM-D-001 Env (HIV-1)
[22] = molecular target: HIV-1 MGRM-D-011 Env (HIV-1)
[23] = molecular target: HIV-1 MGRM-Chronic-B-012 Env on pseudovirus (HIV-1)
HIV-1 NL43 Env (HIV-1) = molecular target: HIV-1 NL43 Env (HIV-1)
[24] = molecular target: HIV-1 98IN022 Env on pseudovirus (HIV-1)
[25] = molecular target: HIV-1 MGRM-AG-011 Env (HIV-1)
[26] = molecular target: HIV-1 SC422661.8 (Acute) Env on pseudovirus (HIV-1)
[27] = molecular target: HIV-1 MGRM-D-029 Env (HIV-1)
[28] = molecular target: HIV-1 MGRM-AG-009 Env (HIV-1)
[29] = molecular target: HIV-1 MGRM-Chronic-B-008 Env on pseudovirus (HIV-1)
[30] = molecular target: HIV-1 MGRM-D-020 Env (HIV-1)
[31] = molecular target: HIV-1 MGRM-D-024 Env (HIV-1)
[32] = molecular target: HIV-1 MGRM-D-003 Env (HIV-1)
[33] = molecular target: HIV-1 MGRM-C-023 Env on pseudovirus (HIV-1)
[34] = molecular target: HIV-1 MGRM-C-020 Env on pseudovirus (HIV-1)
[35] = molecular target: HIV-1 MGRM-AG-012 Env (HIV-1)
[36] = molecular target: HIV-1 MGRM-F1-006 Env (HIV-1)
[37] = molecular target: HIV-1 MGRM-AE-007 Env (HIV-1)
[38] = molecular target: HIV-1 92UG005 Env (HIV-1)
[39] = molecular target: HIV-1 MGRM-F1-016 Env (HIV-1)
[40] = molecular target: HIV-1 92RW020 Env (HIV-1)
[41] = molecular target: HIV-1 MGRM-D-013 Env (HIV-1)
[42] = molecular target: HIV-1 MGRM-G-011 Env (HIV-1)
[43] = molecular target: HIV-1 JRCSF Env on pseudovirus (HIV-1) (UniProt P20871)
[44] = molecular target: HIV-1 MGRM-G-009 Env (HIV-1)
[45] = molecular target: HIV-1 93MW959 Env on pseudovirus (HIV-1)
[46] = molecular target: HIV-1 MGRM-F1-021 Env (HIV-1)
[47] = molecular target: HIV-1 93IN905 Env on pseudovirus (HIV-1)
[48] = molecular target: HIV-1 MGRM-C-004 Env on pseudovirus (HIV-1)
[49] = molecular target: HIV-1 QH0692.42 (Acute) Env on pseudovirus (HIV-1)
[50] = molecular target: HIV-1 MGRM-D-004 Env (HIV-1)

4E10 (antibody) was tested, and the IC50 [1] was 4.28 µg/mL, the IC50 (µg/ml), pseudovirus neutralization [2] was 13.7 µg/mL and the neutralization IC50 [3] was 5 µg/mL. It also gave an IC50 (pseudovirus neutralization) [4] of 0.53 µg/mL, an IC50 [5] of 4.68 µg/mL and an IC50 (µg/ml), pseudovirus neutralization [6] of 2.13 µg/mL. For the same substance, the IC50 [7] was 11.9 µg/mL, the IC50 (µg/ml), pseudovirus neutralization [8] was 15.4 µg/mL and the IC50 [9] was 5.58 µg/mL. The IC50 (µg/ml), pseudovirus neutralization [10] was 1.7 µg/mL, the IC50 [11] was 9.19 µg/mL and the IC50 [12] was 2.45 µg/mL. It also gave a neutralization IC50 [13] of 11.2 µg/mL, a neutralization IC90 [13] of over 50 µg/mL and an IC50 (pseudovirus neutralization) [14] of 2.74 µg/mL. The IC50 [15] was 12.3 µg/mL, the IC50 (µg/ml), pseudovirus neutralization [16] was 1.02 µg/mL and the IC50 [17] was 18.9 µg/mL. For the same substance, the IC50 (µg/ml), pseudovirus neutralization [18] was 2.61 µg/mL, the IC50 (µg/ml), pseudovirus neutralization [19] was 3.9 µg/mL and the IC50 [20] was 2.19 µg/mL. It also gave an IC50 (µg/ml), pseudovirus neutralization [21] of 1.84 µg/mL, an IC50 (µg/ml), pseudovirus neutralization [22] of 0.91 µg/mL and an IC50 [23] of 48 µg/mL. For the same substance, the neutralization IC50 (HIV-1 NL43 Env (HIV-1)) was 4.95 µg/mL, the neutralization IC90 (HIV-1 NL43 Env (HIV-1)) was 29.6 µg/mL and the IC50 [24] was 0.53 µg/mL. For the same substance, the IC50 (µg/ml), pseudovirus neutralization [25] was 1.36 µg/mL, the IC50 [26] was 6.35 µg/mL and the IC50 (µg/ml), pseudovirus neutralization [27] was 5.3 µg/mL. It also gave an IC50 (µg/ml), pseudovirus neutralization [28] of 31.4 µg/mL, an IC50 [29] of 16.7 µg/mL and an IC50 (µg/ml), pseudovirus neutralization [30] of over 50 µg/mL. It also gave an IC50 (µg/ml), pseudovirus neutralization [31] of 3.6 µg/mL, an IC50 (µg/ml), pseudovirus neutralization [32] of 2.49 µg/mL and an IC50 [33] of 1.95 µg/mL. The IC50 [34] was 2.8 µg/mL, the IC50 (µg/ml), pseudovirus neutralization [35] was 0.86 µg/mL and the IC50 (pseudovirus neutralization) [36] was 1.01 µg/mL. It also gave an IC50 (µg/ml), pseudovirus neutralization [37] of 0.45 µg/mL, an IC50 (µg/ml), pseudovirus neutralization [38] of 7.46 µg/mL and a neutralization IC50 [38] of 8.86 µg/mL. For the same substance, the neutralization IC90 [38] was over 50 µg/mL, the IC50 (pseudovirus neutralization) [39] was 7.61 µg/mL and the neutralization IC50 [40] was 3.38 µg/mL. It also gave a neutralization IC90 [40] of 36.1 µg/mL, an IC50 (µg/ml), pseudovirus neutralization [41] of 5.38 µg/mL and an IC50 (µg/ml), pseudovirus neutralization [42] of 1.44 µg/mL. For the same substance, the IC50 [43] was 3.3 µg/mL, the IC50 (µg/ml), pseudovirus neutralization [44] was 1.34 µg/mL and the IC50 [45] was 4.55 µg/mL. It also gave an IC50 (pseudovirus neutralization) [46] of 1.87 µg/mL, an IC50 [47] of 1.26 µg/mL and an IC50 [48] of 24.2 µg/mL. It also gave an IC50 [49] of 12.7 µg/mL and an IC50 (µg/ml), pseudovirus neutralization [50] of 1.58 µg/mL.
